Results from patent US20200102347A1 (AUCTUS BIOLOGIES, published 2020).
No end group written: not given here. *: point of attachment. RhodamineB = CCN(CC)c1ccc2c(-c3ccccc3C(=O)*)c3ccc(=[N+](CC)CC)cc-3oc2c1

T1: NativeRPtag(large)_with_Tags_and_Cys (Thermoanaerobacter tengcongensis)
T1 construct: Unlabeled in anisotropy assays; coupled through the engineered N-terminal Cys to SulfoLink agarose or maleimide plates in column, pull-down and ELISA assays
T1 chain: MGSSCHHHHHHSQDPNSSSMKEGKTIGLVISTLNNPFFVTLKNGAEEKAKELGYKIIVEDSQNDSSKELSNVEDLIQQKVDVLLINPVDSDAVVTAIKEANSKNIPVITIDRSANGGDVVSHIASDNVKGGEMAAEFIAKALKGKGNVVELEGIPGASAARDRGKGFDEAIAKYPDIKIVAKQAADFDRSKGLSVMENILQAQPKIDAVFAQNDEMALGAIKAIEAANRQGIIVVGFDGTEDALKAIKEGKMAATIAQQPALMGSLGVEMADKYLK

T2: MaturePDGF-β_NterminalPeptide
T2 construct: an N-terminal G was added and is left out of the numbering; also called PDGF-β peptide
T2 peptide: RhodamineB-GSLGSLTIAEPAMIAE

T3: RPtag(small) Nd2, Cd4 (Thermoanaerobacter tengcongensis)
T3 peptide: RhodamineB-KIPNFIPAELKLITK

T4: RPtag(large) f137d (Thermoanaerobacter tengcongensis)
T4 construct: also called F137D RPtag(large)
T4 chain: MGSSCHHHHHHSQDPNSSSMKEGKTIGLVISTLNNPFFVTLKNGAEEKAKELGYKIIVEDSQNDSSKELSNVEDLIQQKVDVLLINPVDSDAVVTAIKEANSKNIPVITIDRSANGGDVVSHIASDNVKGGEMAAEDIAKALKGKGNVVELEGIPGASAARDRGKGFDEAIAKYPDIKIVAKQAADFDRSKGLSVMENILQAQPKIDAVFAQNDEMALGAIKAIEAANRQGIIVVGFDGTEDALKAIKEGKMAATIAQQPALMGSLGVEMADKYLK


Columns and labels:
[1] = biological target: T1, NativeRPtag(large)_with_Tags_and_Cys; test: immobilized RPtag(large) column; bound in 3 M NaCl, eluted with 3 M imidazole
Protocol: Briefly, columns, as described above, were first equilibrated with 10 mL 100 mM Tris pH 8.0, 3 M NaCl, 0.005% Tween20. […] The column was then washed with 10 mL of the same buffer. Finally, bound target molecules were eluted with 10 mL of 100 mM Tris pH 8.0, 3 M imidazole, 0.005% Tween20.

[2] = biological target: T2, MaturePDGF-β_NterminalPeptide; test: fluorescence anisotropy, 20 nM rhodamine PDGF-β N-terminal peptide
Protocol: (§1) After the incubation, fluorescence anisotropy was measured, and the resultant curves were fit with the equation f=y0+(ymax−y0)*(Ptot+x+Kd−sqrt((Ptot+x+Kd)\hat{ }2−4*Ptot*x))/(2*Ptot), where y0 is the baseline anisotropy, ymax is the maximum anisotropy, Ptot is the fixed concentration of labeled peptide used, x is the variable concentration of protein used, and Kd is the measured Kd. […] Buffer was 50 mM Tris pH 8.0, 0.005% Tween20.

[3] = biological target: T3, RPtag(small) Nd2, Cd4; test: fluorescence anisotropy, 2 nM rhodamine Nd2Cd4
Protocol: as §1

[4] = biological target: T5, PDGF-β dimer (recombinant, purified and refolded mature PDGF-β) (Homo sapiens (Human), UniProt P01127 82-190); test: fluorescence anisotropy; 100 nM FITC-labeled RPtag large double mutant, unlabeled PDGF-β dimer titrated, 1 h at room temperature
T5 construct: also called mature PDGF-β dimer
Protocol: After 1 h incubation at room temperature, fluorescence anisotropy was measured, and the resultant curves were fit to a standard binding equation.

[5] = biological target: T1, NativeRPtag(large)_with_Tags_and_Cys; test: fluorescence anisotropy; TritonX-100 (2%)
[6] = biological target: T1, NativeRPtag(large)_with_Tags_and_Cys; test: fluorescence anisotropy; PG (50%)
[7] = biological target: T1, NativeRPtag(large)_with_Tags_and_Cys; test: fluorescence anisotropy, association kinetics
[8] = biological target: T1, NativeRPtag(large)_with_Tags_and_Cys; test: fluorescence anisotropy; MnSO4 (10 mM)
[9] = biological target: T1, NativeRPtag(large)_with_Tags_and_Cys; test: fluorescence anisotropy; EtOH (20%)
[10] = biological target: T1, NativeRPtag(large)_with_Tags_and_Cys; test: fluorescence anisotropy; BME (10%)
[11] = biological target: T1, NativeRPtag(large)_with_Tags_and_Cys; test: fluorescence anisotropy; 50 mM Tris pH 8.0, 0.005% Tween 20, no additive
[12] = biological target: T1, NativeRPtag(large)_with_Tags_and_Cys; test: fluorescence anisotropy; acetone (20%)
[13] = biological target: T1, NativeRPtag(large)_with_Tags_and_Cys; test: fluorescence anisotropy; DTT (100 mM)
[14] = biological target: T1, NativeRPtag(large)_with_Tags_and_Cys; test: fluorescence anisotropy, competitor chase; 50 mM Tris pH 8.0, 0.005% Tween 20, no additive
[15] = biological target: T1, NativeRPtag(large)_with_Tags_and_Cys; test: fluorescence anisotropy; NH4SO4 (3M)
[16] = biological target: T1, NativeRPtag(large)_with_Tags_and_Cys; test: fluorescence anisotropy; MgCl2 (3M)
[17] = biological target: T1, NativeRPtag(large)_with_Tags_and_Cys; test: fluorescence anisotropy, chase with 0.1 mM unlabeled native RPtag small, first order fit; no additive; first order fit of the dissociation traces (n=15)
Description: Data processing was done as in panel a, except the red fits were to the single exponential decay equation y=y0+A*exp(−b*t).
Panel e is a graph of the initial rates of the traces represented in d. […] Data are mean±SE (n=3).

[18] = biological target: T6, Bovine Serum Albumin (bovine, UniProt P02769 25-607); test: fluorescence anisotropy; 1 nM rhodamine native RPtag (small), BSA titrated
T6 construct: also called BSA
Protocol: Kd's were calculated according to the equation f=y0+(ymax−y0)*(Ptot+x+Kd−sqrt((Ptot+x+Kd)\hat{ }2−4*Ptot*x))/(2*Ptot), where y0 is the baseline anisotropy, ymax is the maximum anisotropy, Ptot is the fixed concentration of labeled peptide used, x is the variable concentration of protein used, and Kd is the measured Kd.

[19] = biological target: T1, NativeRPtag(large)_with_Tags_and_Cys; test: fluorescence anisotropy; ribose (3M)
[20] = biological target: T1, NativeRPtag(large)_with_Tags_and_Cys; test: fluorescence anisotropy; sorbitol (3M)
[21] = biological target: T1, NativeRPtag(large)_with_Tags_and_Cys; test: fluorescence anisotropy; NaCl (3M)
[22] = biological target: T1, NativeRPtag(large)_with_Tags_and_Cys; test: fluorescence anisotropy; glycerol (20%)
[23] = biological target: T1, NativeRPtag(large)_with_Tags_and_Cys; test: calculated from koff and Kd; no additive; calculated in the text from koff and Kd
[24] = biological target: T1, NativeRPtag(large)_with_Tags_and_Cys; test: fluorescence anisotropy; Tween20 (2%)
[25] = biological target: T1, NativeRPtag(large)_with_Tags_and_Cys; test: calculated from koff and Kd; 50 mM Tris pH 8.0, 0.005% Tween 20, no additive
[26] = biological target: T1, NativeRPtag(large)_with_Tags_and_Cys; test: fluorescence anisotropy; MeOH (20%)
[27] = biological target: T1, NativeRPtag(large)_with_Tags_and_Cys; test: fluorescence anisotropy; KCl (3M)
[28] = biological target: T1, NativeRPtag(large)_with_Tags_and_Cys; test: fluorescence anisotropy; CaCl2 (3M)
[29] = biological target: T1, NativeRPtag(large)_with_Tags_and_Cys; test: fluorescence anisotropy; No Additive
[30] = biological target: T1, NativeRPtag(large)_with_Tags_and_Cys; test: fluorescence anisotropy; NiCl2 (100 mM)
[31] = biological target: T1, NativeRPtag(large)_with_Tags_and_Cys; test: fluorescence anisotropy; DMSO (20%)
[32] = biological target: T4, RPtag(large) f137d; test: fluorescence anisotropy (FIG. 14)
Protocol: Resultant curves were fit with the equation f=y0+(ymax−y0)*(Ptot+x+Kd−sqrt((Ptot+x+Kd)\hat{ }2−4*Ptot*x))/(2*Ptot), where y0 is the baseline anisotropy, ymax is the maximum anisotropy, Ptot is the fixed concentration of labeled peptide used, x is the variable concentration of protein used, and Kd is the measured Kd. […] Buffer was 50 mM Tris pH 8.0, 0.005% tween20.

[33] = biological target: T1, NativeRPtag(large)_with_Tags_and_Cys; test: fluorescence anisotropy; No Additive; No Additive; 100 mM Tris pH 8.0, 0.005% Tween 20 (Table 3)
[34] = biological target: T1, NativeRPtag(large)_with_Tags_and_Cys; test: competition fluorescence anisotropy; 1 µM RPtag large and 1 µM rhodamine PDGF-β N-terminal peptide (the displaced ligand), unlabeled Nd2,p5a,e18a titrated, 1 h; 50 mM Tris pH 8.0, 0.005% Tween20
Protocol: The curves were fit with the equation f=y0+(ymax−y0)*(Ptot+x+Kd−sqrt((Ptot+x+Kd)\hat{ }2−4*Ptot*x))/(2*Ptot), where y0 is the baseline anisotropy, ymax is the maximum anisotropy, Ptot is the fixed concentration of labeled peptide used, x is the variable concentration of protein used, and Kd is the measured Kd. […] The curves were fit empirically to a 4 parameter logistic regression. In both cases, the buffer was 50 mM Tris pH 8.0, 0.005% Tween20. Curves were fit in 4 independent trials each, and the data was averaged for display. Points are mean±SEM (n=3).

T5 sequence (P01127 82-190): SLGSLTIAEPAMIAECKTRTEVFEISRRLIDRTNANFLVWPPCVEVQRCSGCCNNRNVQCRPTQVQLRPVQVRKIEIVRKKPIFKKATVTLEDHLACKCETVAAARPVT
T6 sequence (P02769 25-607 limits assumed): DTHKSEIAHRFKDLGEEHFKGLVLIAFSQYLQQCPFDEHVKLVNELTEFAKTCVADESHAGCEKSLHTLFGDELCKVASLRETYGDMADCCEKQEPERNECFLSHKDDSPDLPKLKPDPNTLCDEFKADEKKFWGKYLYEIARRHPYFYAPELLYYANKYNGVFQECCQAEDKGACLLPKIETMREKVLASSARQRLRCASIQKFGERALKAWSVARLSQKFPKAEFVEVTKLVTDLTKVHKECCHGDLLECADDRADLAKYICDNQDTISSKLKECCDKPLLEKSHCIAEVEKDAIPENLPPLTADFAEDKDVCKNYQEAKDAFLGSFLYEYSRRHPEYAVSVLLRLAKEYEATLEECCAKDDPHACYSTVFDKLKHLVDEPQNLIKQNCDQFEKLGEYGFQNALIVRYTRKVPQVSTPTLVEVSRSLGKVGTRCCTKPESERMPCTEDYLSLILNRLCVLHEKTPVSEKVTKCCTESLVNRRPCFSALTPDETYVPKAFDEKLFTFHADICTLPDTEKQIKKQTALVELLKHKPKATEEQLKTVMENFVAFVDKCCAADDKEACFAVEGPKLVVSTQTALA

| Binder | Kd [5] [nM] | Kd [6] [nM] | Kd [8] [nM] | Kd [9] [nM] | Kd [10] [nM] | Kd [11] [nM] | Kd [12] [nM] | Kd [13] [nM] | koff [14] [s⁻¹] | Kd [15] [nM] | Kd [16] [nM] | Kd [19] [nM] | Kd [20] [nM] | Kd [21] [nM] | Kd [22] [nM] | Kd [24] [nM] | kon [25] [M⁻¹ s⁻¹] | Kd [26] [nM] | Kd [27] [nM] | Kd [28] [nM] | further results |
| --- | --- | --- | --- | --- | --- | --- | --- | --- | --- | --- | --- | --- | --- | --- | --- | --- | --- | --- | --- | --- | --- |
| Nterminally_tagged_RPtag(small)Nd8,Cd4(fast)_tagRFP (other, also called tagRFP containing an N-terminal RPtag (small) Nd8Cd4 tag) MGSSPAELKLITKGSENLYFQGGSMVSKGEELIKENMHMKLYMEGTVNNHHFKCTSEGEGKPYEGTQTMRIKVVEGGPLPFAFDILATSFMYGSRTFINHTQGIPDFFKQSFPEGFTWERVTTYEDGGVLTATQDTSLQDGCLIYNVKIRGVNFPSNGPVMQKKTLGWEANTEMLYPADGGLEGRSDMALKLVGGGHLICNFKTTYRSKKPAKNLKMPGVYYVDHRLERIKEADKETYVEQHEVAVARYCDLPSKLGHKLNGSSGHHHHHHHH |  |  |  |  |  |  |  |  |  |  |  |  |  |  |  |  |  |  |  |  | binding result [1]: binds |
| RPtag(large) H122L, A253R double mutant (designed binder, Unlabeled against the rhodamine peptides; also called RPtag (large) h1221, a253r; double mutant RPtag(large)) MGSSCHHHHHHSQDPNSSSMKEGKTIGLVISTLNNPFFVTLKNGAEEKAKELGYKIIVEDSQNDSSKELSNVEDLIQQKVDVLLINPVDSDAVVTAIKEANSKNIPVITIDRSANGGDVVSLIASDNVKGGEMAAEFIAKALKGKGNVVELEGIPGASAARDRGKGFDEAIAKYPDIKIVAKQAADFDRSKGLSVMENILQAQPKIDAVFAQNDEMALGAIKAIEAANRQGIIVVGFDGTEDALKAIKEGKMRATIAQQPALMGSLGVEMADKYLK |  |  |  |  |  |  |  |  |  |  |  |  |  |  |  |  |  |  |  |  | Kd [2]: 1500 nM; Kd [3]: 3.1 nM; Kd [4]: 75 nM |
| RhodamineB-GEKIPNFIPAELKLITKENVQ (Synthetic peptide) [native RPtag(small)] | 0.64 | 19 | 160 | 0.17 | 5.3 | 0.21 | 0.15 | 0.51 | 0.000152 | 1.5 | 124 | 0.023 | 2.5 | 0.0027 | 0.034 | 0.49 | 717000 | 0.11 | < 0.001 | 330 | Keq (S-S*) [7]: 1.6; kf (S to S*) [7]: 0.092 min⁻¹; kr (S* to S) [7]: 0.056 min⁻¹; koff [17]: 0.0002 s⁻¹; binding result [18]: no binding; kon [23]: ~767000 M⁻¹ s⁻¹; Kd [29]: 0.21 nM; Kd [30]: 3.2 nM; Kd [31]: 0.17 nM |
| RhodamineB-GEKIPNFIPAELKKITKENVQ (also called L14K RPtag(small)) [RPtag(small) l14k] |  |  |  |  |  |  |  |  |  |  |  |  |  |  |  |  |  |  |  |  | binding result [32]: binds |
| RhodamineB-KIANFIPAELKLITKANVQ (also: also used unlabeled as competitor, Rhodamine labeled in the Kd assays; also called RPtag(small) (tight)) [RPtag(small) Nd2, p5a, e18a] | 0.046 | 49 | 22 | 0.1 | 6.7 | 0.047 | 0.019 | 0.073 | 0.000217 | 44 | 350 | < 0.001 | < 0.001 | < 0.001 | < 0.001 | 4.7 | 4.67e+06 | 0.056 | 0.011 | 150 | Kd [33]: 0.037 nM; IC50 (read off the curve) [34]: ~500 nM; Kd [30]: 2.2 nM; Kd [31]: 0.023 nM |
